Test [1] concerns the target T1, bacterially produced N-cadherin ECD1-3 (UniProt P19022 160-497, limits assumed).
T1 construct: domain: ECD1-3; Antigen against which hybridoma 1H7 was selected; also called ECD1-3 (bacterially produced)
T1 sequence (looked up): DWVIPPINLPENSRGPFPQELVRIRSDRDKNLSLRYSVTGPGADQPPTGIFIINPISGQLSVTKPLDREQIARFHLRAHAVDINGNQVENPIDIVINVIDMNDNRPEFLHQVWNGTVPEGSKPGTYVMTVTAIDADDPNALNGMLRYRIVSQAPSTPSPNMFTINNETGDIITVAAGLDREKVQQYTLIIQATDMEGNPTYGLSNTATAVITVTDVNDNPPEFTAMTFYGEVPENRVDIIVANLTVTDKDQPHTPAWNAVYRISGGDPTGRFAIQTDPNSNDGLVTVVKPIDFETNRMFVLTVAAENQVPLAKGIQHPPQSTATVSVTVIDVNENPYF
Description: ELISA, saturation binding on immobilized antigen, half-maximal binding. The procedure:
FIG. 11 depicts saturation binding of full length IgGs to recombinant antigen in ELISA. Bacterially produced antigens ECD4 and ECD1-3 were immobilized. Bound antibodies were detected with goat anti-human Fcg-AP or goat anti-mouse Fcg-AP respectively.
Saturation binding of the humanized full-length antibodies in comparison to the parental murine antibodies was tested in ELISA.
In general terms: In an ELISA, binding on a coated surface is turned into a signal by an enzyme label.

Test [2] addresses T2, recombinant human N-cadherin ECD1-3-Fc (human; murine, UniProt P19022 160-497).
T2 construct: range 160-497; Cloned into pSECTag2A(AgeI); produced in 293-F cells, Protein A purified; also called Ncad-ECD1-3-Fc; not shown: murine gamma 2a Fc region
T2 sequence (looked up): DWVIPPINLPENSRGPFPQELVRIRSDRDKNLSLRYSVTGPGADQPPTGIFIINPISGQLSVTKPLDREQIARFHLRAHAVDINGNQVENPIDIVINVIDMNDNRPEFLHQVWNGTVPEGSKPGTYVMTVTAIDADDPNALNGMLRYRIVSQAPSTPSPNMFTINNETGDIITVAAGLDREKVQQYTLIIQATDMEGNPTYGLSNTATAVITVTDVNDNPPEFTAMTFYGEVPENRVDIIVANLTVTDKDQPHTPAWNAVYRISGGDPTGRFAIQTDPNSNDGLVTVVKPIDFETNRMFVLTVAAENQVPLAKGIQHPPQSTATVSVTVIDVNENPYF
Description: ELISA, saturation binding on immobilized antigen. The procedure: Saturation binding of the humanized scFv fragments was performed on immobilized recombinant human Ncad-ECD1-3-Fc in ELISA (FIG. 8) confirming successful humanization and retained antigen specificity.

For test [3], the target named is bacterially produced human N-cadherin ECD4 with ECD3 overhang (human) (UniProt P19022). Description: ELISA, saturation binding on immobilized antigen, half-maximal binding.

B1: hu1H7 IgG (antibody, V domains shown)
VH: QVQLVQSGAEVKKPGASVKVSCKASGFTFTDYLIQWVRQAPGQGLEWIGWIYPGSGSIKYNEKFQGRVTMTADTSINTAYMELSRLRSDDTAVYFCARRGDWGGFFDYWGQGTLVTVSS
VL: EIVLTQSPATLSLSPGERATLSCTASSSVSSSYLHWYQQKPGLAPRLWIFSTSNLASGIPDRFSGSGSGTDFTLTISRLEPEDFAVYYCHQYHRSLTFGGGTKVEIK
notes: also called h1H7; humanized full-length antibody hu1H7
In the case of B1, in test [1], the affinity, expressed as Kd, was 0.4 nM.

B2: humanized 2A9 scFv (scFv)
scFv: QVQLVQSGAEVKKPGASVKLSCKASGYTFTSYWMQWVRQAPGQGLEWIGAIYPGDGETTYTQKFKGRVTMTADTSISTAYMELSRLRSDDTAVYYCAKGDGYWAMDYWGQGTLVTVSSGGGGSGGGGSGGGGSDVVMTQSPLSLPVTLGQPASISCRSSQSLVHSNGNTYLHWYQQRPGQSPRLLIYKVSNRFSGVPDRFSGSGSGTDFTLKISRVEAEDVGVYYCSQSTHVPLTFGAGTKLELK
notes: VH-(G4S)3-VL scFv secreted with the Ig kappa leader; also called hu2A9 scFv; scFv hu2A9; not shown: C-terminal tag from vector pSECTag2A (His-tag; detected through c-Myc)
B2: the binding result in test [2] is “binds”.

B3: hu2A9 IgG (antibody, V domains shown)
VH: QVQLVQSGAEVKKPGASVKLSCKASGYTFTSYWMQWVRQAPGQGLEWIGAIYPGDGETTYTQKFKGRVTMTADTSISTAYMELSRLRSDDTAVYYCAKGDGYWAMDYWGQGTLVTVSS
VL: DVVMTQSPLSLPVTLGQPASISCRSSQSLVHSNGNTYLHWYQQRPGQSPRLLIYKVSNRFSGVPDRFSGSGSGTDFTLKISRVEAEDVGVYYCSQSTHVPLTFGAGTKLELK
On to B3, for which the Kd (commonly the free concentration of one partner at which half of the binding sites on the other are occupied at equilibrium, for simple one-to-one binding) in test [3] was 0.5 nM.

Source of the values: US20200165351A1 (University of California, published 2020).
